Our source for the Kd values is publication PMC10899635 (2024).

The chains are these.
B1: Nb27 (VHH)
VHH: QVQLQESGGGLVQPGGSLRLSCTTSRSILSIYAMGWYRQAPGKQRELVAVITSGGSTYYADSVKGRFTISRDNAKNTLYLQMNSLKPEDTALYYCARGGYGTSPQPSWGQGTQVTVSS
B2: recombinant Q586B2 protein (natural protein)
chain: MPNLVVTATFSPPAFSIVGSPLREDTIKHMEERIPTVLSTALSRSREPSYFVHSKNPESWKMELSQHFCDELHRAAVSLVIIECLDAEGWVLRTSSSSQDTNEGKCCIKFYFTRS
B3: Nb39 (VHH)
VHH: QVQLQESGGGLVQPGGSLRLSCTASGSIFSGYAMGWYRQAPGKQRELVAGITSGGSTIYAGSVKGRFTISRDNAKNTVYLQMNSLKPEDTAVYYCKNGTYYSARDYWGQGTQVTVSS

For experiment [1], the target named is B2.
Experiment [2] addresses Nb36.
The target in experiment [3] is Nb34.

B1: the Kd in experiment [1] is 52 nM.
Take B2: the Kd in experiment [2] stood at 11.3 nM; in experiment [3], 36.7 nM.
With B3, the Kd in experiment [1] was determined as 49.9 nM.
